# Assay results: the nanobody polyreactivity screen of Harvey et al. (2022)
# Test: yeast display, Sf9 membrane polyspecificity reagent, FACS + sequencing; frameworks hold sequencing errors
# Outline: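 Using colony PCR, genes from sorted yeast display clones were amplified, then sequenced on MiSeq at 2 × 250 and filtered by CDR length. The clones had been stained with 10% biotinylated, detergent-solubilized Sf9 membrane reagent for 1 hour at 4 °C and sorted by FACS into low and high (top ~1%) gates on anti-HA and streptavidin fluorescence. Polyreactivity labels come from the gate of origin.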
row,Sequence,polyreactivity (PSR sort gate)
1,QVQLVESVGGLDQAGGSLRLSCAASGRIIAWYPMGWYRQSPGKERELVAAISWNGGRTYYADSVKGRFTISRDNAKNTVYLQINSLKPEDTAVYYCAAGKTPQKYGGFNSWGQGTQVTVSS,high polyreactivity
2,QDLHVESGGGVVQAGGSLRVSCAASGRTFISYAMGWSRQAPGKERELVATITRDGRTNYADSVKGRFTFSRDNAKNTVYLQMNSLNAEDTAVYYCNADSRYRYDYWGQGSQVTVSS,low polyreactivity
3,QVQLVESGGGLVQAGGSLRLSCAASGSTFGDYAMGWYRQAPGKERELVAAISFSDDSTYYADSVKGRFTISRDNAKNTVYLQMNSLKPEDTAVYYCAKEAEYSTPGGDYWGQGTQVTVSS,low polyreactivity
4,QVQLVESGGGLVQAGGSLRLSCAASGFTFWGNAMGWYRPAPGKERELVAAITDTGSTNYADSVKGRFTISRDNAKNTVYLQMNSLKPEDTAVYYCAKDKAYYDWGQTNGYWGQGTQVTVSS,low polyreactivity
5,QVQLVESGGGLVQAGGSLRLSCAASGRFFRYNAMGWYRQAPGKERELVAAIRYSGTSTYYADSVKGRFTISRDNAKNTVYFQMNSLKPEDTAVYYCAAYKRYYYGYDYWGQGTQVTVSS,high polyreactivity
6,QVQLVESGGGLVQAGGSLRLSCAASGSIFSAYVMGWYRQAPGKERELVAAINRGGNTYYADSVKGRFTISRDNAKNTVYLQMNSLKPEDTAVYYCNAQWYYLRYRYDYWGQGTQVTVSS,high polyreactivity
7,QVQLVESGGGVVQAGGSLRLSCAASVRTFPGYAMGWYRQAPGKERELVAAISWSGTSTYYADSVKGRFTISRDYAKNTVYLQMNSLKPEYTAVYDCNKVYTYSAPYYYWGQGTQVTVSS,high polyreactivity
8,QVQLVESGGGLVQAGGSLRLSCAASGFIFKLYAMGWYRQAPGKERELVAAIRSSGGSTYYADSVKGRFTISRDNAKNTVYLQMNSLKPEDTAVYYCAKVGGRVRYNYWGQGTQVTVSS,high polyreactivity
9,QVQLVESGGGLVQAGGSLRLSCAASGSTFNGYAMGWYRQAPGKERELVAAISKRGGSTYYADSVKGRFTISRDNAKNTVYLQMNSLKPEDTAVYYCAARNPTKYLMDYWGKGTQVTVSS,high polyreactivity
10,QVQLVESGGGLVQAGGSLRLSCAASGNIFTPYTMGWYRQAPGKERELVASINNAGTTKYADSVKGRFTISRDNAKNTVYLQMNSLKPEDTAVYFCAAQRRHALSSYPKHYYWGQGTQVTVSS,low polyreactivity
11,QVQLVESGGGLVQAGGSLRLSCAASGSTVESNVMGWYRQAPGKERELVAAISYSGGSTYIADSVKGRFTISRDNAKNTVYLQLNSLNPEDTAVLYSNALTSGYLYTFHRLWYPMYYWGQGTQGTVSS,high polyreactivity
12,QVQLVESGGGLVQAGGSLRLSCAASGFIFLPNDMGWYRQAPGKEREFVAAIDWSGGSTYYADSVKGRFTISRDNAKNTVYLQMNSLKPEDTAVYYCNAEGRRVGFRIDYDYWGQGTQVTVSS,low polyreactivity
13,QVQLVESGGGLVQAGGSLRLSCAASGSIFFWNDMGWYRQAPGTERELVAAISWSGGSTSYADSVKGRFTISRDNAKNTVYLQMNSLKPEDTAVYYCAADYYYRTLYGYIGMDYWGQGTQVTVSS,low polyreactivity
14,QVQLVESGGGLVQAGGTLRLSCAASGSIFYPNAMGWYRQAPGKERELVAASSWTGGSTRYADSVKGRFTISRDIAKNTVYLQMNSLKPEDTAVYYCAALYVYRPRTPYGYSGQGTQVTVSS,high polyreactivity
15,QVQLVESGGGLVQAGGSLRLTCDASGSTFYHNAMGWYRQAPGKERELVAAITTSGGSTYYADSVKWRFTISRDNAKNTVYLQMNSLKPEDSAVYYCNVYRPYLAPYDYWGQGTQVTVSS,low polyreactivity
16,QVQLVESGGGLVQAGGSLRLSCAASGRTFTKYAMGWYIQAPGKERELVASISTRGGSTYYADSVKGRFTISRDNAKNTVYLQMNSLKPEDTAVYYCNKGFRHRAPSSTPYDYWGQGTQVTVSS,high polyreactivity
